Measured values taken from patent publication US20210130471A1 (DRAGONFLY THERAPEUTICS, published 2021).
Changes are numbered by the printed parent chain.

T1: human NKG2D expressed on EL4 cells (Example 8) (human, UniProt P26718 1-216)
T1 construct: whole, on cells; also called extracellular NKG2D expressed on EL4 cells
T1 sequence (looked up): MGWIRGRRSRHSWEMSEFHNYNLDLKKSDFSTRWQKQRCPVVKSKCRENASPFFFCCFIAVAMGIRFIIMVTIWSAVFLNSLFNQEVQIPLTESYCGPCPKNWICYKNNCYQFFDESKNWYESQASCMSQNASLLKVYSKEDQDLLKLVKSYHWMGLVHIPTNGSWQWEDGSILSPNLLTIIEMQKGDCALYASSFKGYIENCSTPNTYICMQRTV

B1: CD33-TriNKET-C26 (ADI-28226 and a CD33-binding domain) (bispecific antibody, V domains shown)
VH 1: QVQLQQWGAGLLKPSETLSLTCAVYGGSFSGYYWSWIRQPPGKGLEWIGEIDHSGSTNYNPSLKSRVTISVDTSKNQFSLKLSSVTAADTAVYYCARARGPWSFDPWGQGTLVTVSS
VL 1: DIQMTQSPSTLSASVGDRVTITCRASQSISSWLAWYQQKPGKAPKLLIYKASSLESGVPSRFSGSGSGTEFTLTISSLQPDDFATYYCQQYGSFPITFGGGTKVEIK
VH 2: QVQLVQSGAEVKKPGASVKVSCKASGYTFTDYVVHWVRQAPGQGLEWMGYINPYNDGTKYNEKFKGRVTMTRDTSISTAYMELSRLRSDDTAVYYCARDYRYEVYGMDYWGQGTLVTVSS
VL 2: DIVLTQSPASLAVSPGQRATITCTASSSVNYIHWYQQKPGQPPKLLIYDTSKVASGVPARFSGSGSGTDFTLTINPVEANDTANYYCQQWRSYPLTFGQGTKLEIK
B2: CD33-TriNKET-A44 (ADI-27744 and a CD33-binding domain) (bispecific antibody, V domains shown)
VH 1: not shown
VL 1: DIQMTQSPSSVSASVGDRVTITCRASQGIDSWLAWYQQKPGKAPKLLIYAASSLQSGVPSRFSGSGSGTDFTLTISSLQPEDFATYYCQQGVSYPRTFGGGTKVEIK
VH 2: B1 VH 2
VL 2: B1 VL 2
B3: CD33-TriNKET-F47 (ADI-29447 and a CD33-binding domain) (bispecific antibody, V domains shown)
VH 1: B1 VH 1
VL 1: DIQMTQSPSTLSASVGDRVTITCRASQSISSWLAWYQQKPGKAPKLLIYKASSLESGVPSRFSGSGSGTEFTLTISSLQPDDFATYYCQQYDTFITFGGGTKVEIK
VH 2: B1 VH 2
VL 2: B1 VL 2
B4: CD33-TriNKET-A49 (ADI-27749 and a CD33-binding domain) (bispecific antibody, V domains shown)
VH 1: EVQLVESGGGLVKPGGSLRLSCAASGFTFSSYSMNWVRQAPGKGLEWVSSISSSSSYIYYADSVKGRFTISRDNAKNSLYLQMNSLRAEDTAVYYCARGAPMGAAAGWFDPWGQGTLVTVSS
VL 1: B2 VL 1 with D30S, Y94F
VH 2: B1 VH 2
VL 2: B1 VL 2
B5: parental anti-CD33 monoclonal antibody (antibody, V domains shown)
VH: B1 VH 2
VL: B1 VL 2
notes: Detected with anti-human IgG; also called parental monoclonal anti-CD33 antibody; parental anti-CD33 antibody

Key:
[1] = target: T1, human NKG2D expressed on EL4 cells …; test: flow cytometry on EL4 cells expressing human NKG2D
Description: EL4 mouse lymphoma cell lines were engineered to express human NKG2D. […] The binding of the multi-specific binding proteins to NKG2D was detected using fluorophore-conjugated anti-human IgG secondary antibodies. Cells were analyzed by flow cytometry, and fold-over-background (FOB) was calculated using the mean fluorescence intensity (MFI) of NKG2D-expressing cells compared to parental EL4 cells.

[2] = target: T2, CD33 expressed on human AML cells (MV4-11, Molm-13) (human, UniProt P20138 18-364); test: flow cytometry on Molm-13 and MV4-11 human AML cells
T2 construct: In the assay the endogenous CD33 of the human AML cell lines was the target; also called cell surface CD33; tumor associated antigen CD33
T2 sequence (P20138 18-364 limits assumed): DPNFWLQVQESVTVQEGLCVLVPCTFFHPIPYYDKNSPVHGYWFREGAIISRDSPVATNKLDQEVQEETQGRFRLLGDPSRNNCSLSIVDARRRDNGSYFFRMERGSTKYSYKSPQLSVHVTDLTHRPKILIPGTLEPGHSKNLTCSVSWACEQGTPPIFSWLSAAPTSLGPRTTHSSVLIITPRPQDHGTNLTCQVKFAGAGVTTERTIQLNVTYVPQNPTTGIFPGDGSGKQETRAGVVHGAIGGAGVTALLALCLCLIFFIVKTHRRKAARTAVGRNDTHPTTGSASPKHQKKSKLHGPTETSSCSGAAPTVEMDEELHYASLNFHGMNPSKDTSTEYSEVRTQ
Description: Human AML cell line MV4-11 and Molm-13 expressing CD33 were used to assay the binding of TriNKETs to the tumor associated antigen CD33. TriNKETs and optionally the parental anti-CD33 monoclonal antibody were incubated with the cells, and the binding was detected using fluorophore-conjugated anti-human IgG secondary antibodies. Cells were analyzed by flow cytometry, and fold-over-background (FOB) was calculated using the mean fluorescence intensity (MFI) from the TriNKETs and the parental monoclonal anti-CD33 antibody normalized to secondary antibody controls. […] The TriNKETs show binding to cell surface CD33 on MV4-11 (FIGS. 36A, 36B, and 36D) and Molm-13 cells (FIG. 36C).

| Binder | binding result [1] | binding result [2] |
| --- | --- | --- |
| B1 | binds | – |
| B2 | binds | – |
| B3 | binds | – |
| B4 | binds | – |
| B5 | – | binds |
